Laboratory results as given in patent US20250043017A1.

How the values were obtained:
[1] = target: human PD1 on Jurkat/AP1-luc/hPD1 cells (human) (UniProt Q15116); assay: cell-based or functional assay
[2] = target: human 4-1BB expressed with a C-terminal myc-myc-hexahistidine tag (h4-1BB.mmH) (human); assay: blocking ELISA, 0.25 nM h4-1BB-mmh binding to coated 6His-Flag-h4-1BBL
human 4-1BB expressed with a C-terminal myc-myc-hexahistidine tag (h4-1BB.mmH) (human), sequence (chain, as listed by the source limits assumed): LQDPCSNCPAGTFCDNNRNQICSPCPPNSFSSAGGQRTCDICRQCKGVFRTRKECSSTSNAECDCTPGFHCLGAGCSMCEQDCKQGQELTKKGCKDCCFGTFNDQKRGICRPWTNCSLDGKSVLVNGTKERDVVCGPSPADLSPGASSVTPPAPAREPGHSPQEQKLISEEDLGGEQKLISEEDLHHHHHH

human PD1 on Jurkat/AP1-luc/hPD1 cells (human), sequence (Q15116 25-288): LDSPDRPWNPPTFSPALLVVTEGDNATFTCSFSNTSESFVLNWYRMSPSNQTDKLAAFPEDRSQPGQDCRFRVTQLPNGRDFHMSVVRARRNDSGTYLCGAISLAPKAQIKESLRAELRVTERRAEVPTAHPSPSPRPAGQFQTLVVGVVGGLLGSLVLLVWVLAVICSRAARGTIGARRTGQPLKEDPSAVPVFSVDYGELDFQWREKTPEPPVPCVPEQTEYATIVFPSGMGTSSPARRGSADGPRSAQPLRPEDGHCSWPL

B1: REGN2810 (antibody, INN chains, looked up, V domains shown)
VH: EVQLLESGGVLVQPGGSLRLSCAASGFTFSNFGMTWVRQAPGKGLEWVSGISGGGRDTYFADSVKGRFTISRDNSKNTLYLQMNSLKGEDTAVYYCVKWGNIYFDYWGQGTLVTVSS
VL: DIQMTQSPSSLSASVGDSITITCRASLSINTFLNWYQQKPGKAPNLLIYAASSLHGGVPSRFSGSGSGTDFTLTIRTLQPEDFATYYCQQSSNTPFTFGPGTVVDFR
[1]
  AP-1 luciferase EC50, Jurkat/AP1-luc/hPD1 + WSU-DLCL2/hPD-L1 + CD20xCD3: 0.29 nM
  AP-1 luciferase MAX (RLU), Jurkat/AP1-luc/hPD1 + WSU-DLCL2/hPD-L1 + CD20xCD3: 1.1e+06 RLU

B2: Comparator 1 (antibody, INN chains, looked up, V domains shown)
VH: EVQLVQSGAEVKKPGESLRISCKGSGYSFSTYWISWVRQMPGKGLEWMGKIYPGDSYTNYSPSFQGQVTISADKSISTAYLQWSSLKASDTAMYYCARGYGIFDYWGQGTLVTVSS
VL: SYELTQPPSVSVSPGQTASITCSGDNIGDQYAHWYQQKPGQSPVLVIYQDKNRPSGIPERFSGSNSGNTATLTISGTQAMDEADYYCATYTGFGSLAVFGGGTKLTVLG
[2]
  % Blocking at 100 nM mAb: 72%
